One experiment concerns the target T1, Fc-IL6 (human IL-6; mouse Fc).
T1 construct: also called Mature Fc-IL6
T1 chain: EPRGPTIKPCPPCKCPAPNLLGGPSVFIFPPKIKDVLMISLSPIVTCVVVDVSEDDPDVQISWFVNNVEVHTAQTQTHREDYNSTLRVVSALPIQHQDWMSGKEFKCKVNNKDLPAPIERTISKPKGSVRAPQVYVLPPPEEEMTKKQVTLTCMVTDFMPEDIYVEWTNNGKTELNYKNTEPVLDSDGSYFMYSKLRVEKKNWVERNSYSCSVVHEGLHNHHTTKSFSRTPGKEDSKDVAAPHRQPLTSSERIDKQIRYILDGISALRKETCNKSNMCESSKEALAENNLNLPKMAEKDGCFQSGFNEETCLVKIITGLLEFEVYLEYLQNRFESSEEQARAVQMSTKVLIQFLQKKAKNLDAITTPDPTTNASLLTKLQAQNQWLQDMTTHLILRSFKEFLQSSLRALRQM
Nature of the experiment: binding to immobilized Fc-IL6 (screen of paragraph 73).

For experiment [1], the target named is T2, human IL-6 (human, UniProt P05231 30-212).
T2 construct: The Biacore text says only 'IL-6 protein'; also called interleukin-6; IL-6 protein
Nature of the experiment: Biacore, antibody immobilized on chip, IL-6 passed over. How it is done:
The antibodies were immobilized on a chip; IL-6 protein was passed over the chip, and on-rates and off-rates were measured.
Background: In SPR one partner is held on a chip, and binding of the other changes the refractive index at the surface.

In the next experiment the target is T3, human IL-6Ralpha (human, UniProt P08887 20-358, limits assumed).
T3 construct: also called IL-6Ralpha alone
T3 sequence (looked up): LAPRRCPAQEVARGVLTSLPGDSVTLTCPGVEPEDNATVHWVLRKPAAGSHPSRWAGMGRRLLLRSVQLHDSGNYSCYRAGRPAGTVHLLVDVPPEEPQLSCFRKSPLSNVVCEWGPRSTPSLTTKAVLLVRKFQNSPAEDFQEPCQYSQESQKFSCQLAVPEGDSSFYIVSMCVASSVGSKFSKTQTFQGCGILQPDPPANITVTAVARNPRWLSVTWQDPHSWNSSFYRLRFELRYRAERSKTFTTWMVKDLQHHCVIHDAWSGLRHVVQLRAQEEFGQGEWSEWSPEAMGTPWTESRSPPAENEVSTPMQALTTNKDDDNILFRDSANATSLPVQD
Nature of the experiment: plate binding assay read as OD450, antibody titrated on IL6Ralpha alone.

Experiment [2] deals with T4, Fc-IL6Ralpha-IL6 (human IL-6Ralpha and IL-6; mouse Fc).
T4 construct: Fusion of a mouse IgG gamma2a Fc, the extracellular domains of human IL-6Ralpha and human IL-6; also called Fc-IL6Ralpha-IL6 fusion protein; muFc-IL6Ralpha-IL6
In words: plate binding assay read as OD450, antibody titrated on Fc-IL6Ralpha-IL6.

The target of experiment [3] is T2, human IL-6. Nature of the experiment: plate binding assay read as OD450, antibody titrated on IL6 (form of the coated IL-6 not given for this figure).
Experiment [4] deals with T4, Fc-IL6Ralpha-IL6. Nature of the experiment: competition assay: antibody titrated, inhibition of the binding of Fc-IL6Ralpha-IL6 to gp130-Fc; half of the antibody's own maximal inhibition. As for the experimental part: To further characterize the antibodies that recognize IL-6, the following competition tests were performed. First, the ability of the monoclonal antibodies to inhibit the interaction between Fc-IL6Ralpha-IL6 and gp130-Fc was tested. The inhibition assays were performed based on the methods described by Scheller et al. J. Immuno. Methods, 291:93-100 (2004), the teachings of which are hereby incorporated by reference. […] Second, inhibition of the interaction between Fc-IL6 and Fc-IL6Ralpha by the antibodies was tested.

The target of experiment [5] is T4, Fc-IL6Ralpha-IL6. Nature of the experiment: cell-based or functional assay.

As usually defined, the Kd is the free concentration of one partner at which half of the binding sites on the other are occupied at equilibrium, for simple one-to-one binding. Read a low Kd as tighter binding. A word on the koff: it is the rate constant with which the complex falls apart. The kon is the rate constant with which the complex forms. Usually EC50 (read off the curve) stands for the midpoint of the concentration-response curve.

B1: Mab#195 (antibody, V domains shown)
VH: EVKLEESGGGLVQPGGSMKLSCVASGFTFSNYWMNWVRQSPEKGLEWVAEIRLKSNNYATHYAESVKGRFTISRDDSKSSVYLQMNNLRAEDTGIYYCTREDYYGYPDYWGQGTTLTVSS
VL: not shown
notes: Mouse IgG monoclonal from a hybridoma; V regions were amplified with primers specific for mouse IgG gamma1 VH and Vk; also called antibody 195
For the molecule B1, the binding result with Fc-IL6 was “binds”. Also, in the experiment with human IL-6 [1], the Kd was determined as 2 nM, the koff came out at 0.0048 s⁻¹ and the kon amounted to 2.4e+06 M⁻¹ s⁻¹. Moreover, in the experiment with human IL-6Ralpha, the binding result is “no binding (tested: 1 ug/ml)”. Besides, in the experiment with Fc-IL6Ralpha-IL6 [2], the “EC50 (read off the curve)” value was about 4 ng/mL. The “EC50 (read off the curve)” value with human IL-6 [3] is about 4 ng/mL. The “IC50 (read off the curve)” value with Fc-IL6Ralpha-IL6 [4] is about 100 ng/mL.

B2: Mab#309 (antibody, V domains shown)
VH: EVKLEESGGGLVQPGGSMKLSCVASGFTFSNYWMNWVRQSPEKGLEWVAEIRLKSNKGATHYAESVKGRFTISRDDSKSSVYLQMNNLRAEDTGIYYCASLLYDGYLHWGQGTLVTVSA
VL: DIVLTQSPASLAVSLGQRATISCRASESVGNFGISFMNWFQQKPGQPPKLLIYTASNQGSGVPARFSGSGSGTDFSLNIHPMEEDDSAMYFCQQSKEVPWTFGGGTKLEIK
notes: Mouse IgG monoclonal from a hybridoma; V regions were amplified with primers specific for mouse IgG gamma1 VH and Vk; also called antibody 309
With B2, the binding result with Fc-IL6 is listed as “binds”; with human IL-6Ralpha, “no binding (tested: 1 ug/ml)”. The same molecule had a Kd in the experiment with human IL-6 [1] of 0.135 nM. Also, the koff with human IL-6 [1] is 0.00011 s⁻¹. The same molecule had a kon with human IL-6 [1] of 800000 M⁻¹ s⁻¹. In addition, the “EC50 (read off the curve)” value in the experiment with Fc-IL6Ralpha-IL6 [2] and with human IL-6 [3] was about 3 ng/mL each time. Further, the “IC50 (read off the curve)” value in the experiment with Fc-IL6Ralpha-IL6 [4] was about 200 ng/mL.

B3: Mab#471 (antibody, V domains shown)
VH: EVKFEESGGGLVQPGGSMKLSCVASGFSFSNYWMNWVRQSPEKGLEWVAEIRLTSNKQAIYYAESVKGRFTISRDDSKSSVYLQMNNLRAEDTGIYYCASLFYDGYLHWGQGTLVTVSA
VL: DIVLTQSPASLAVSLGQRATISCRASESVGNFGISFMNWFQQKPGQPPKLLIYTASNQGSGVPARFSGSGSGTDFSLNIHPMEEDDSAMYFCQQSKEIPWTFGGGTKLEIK
notes: Mouse IgG monoclonal from a hybridoma; V regions were amplified with primers specific for mouse IgG gamma1 VH and Vk
Regarding B3, the “haptoglobin level in mice given muFc-IL6Ralpha-IL6, relative to the positive control group at 24 hours” value with Fc-IL6Ralpha-IL6 [5] is about 30%. For the same molecule, the binding result with Fc-IL6 is listed as “binds”. In the experiment with human IL-6 [1], this molecule yielded a Kd of 0.0075 nM, a koff of 1.4e-05 s⁻¹ and a kon of 1.8e+06 M⁻¹ s⁻¹. The binding result with human IL-6Ralpha is on record as “no binding (tested: 1 ug/ml)”. In addition, the “EC50 (read off the curve)” value with Fc-IL6Ralpha-IL6 [2] is about 3 ng/mL. For the same molecule, the “EC50 (read off the curve)” value in the experiment with human IL-6 [3] was about 5 ng/mL. The “IC50 (read off the curve)” value with Fc-IL6Ralpha-IL6 [4] is about 200 ng/mL.

B4: Mab#476 (antibody, V domains shown)
VH: EVKLEESGGGLVQPGGSMKLSCAASGFTFSDAWMDWVRQSPEKGLEWVAEIRSKANNHATYYAESVKGRFTISRDDSKSSVYLQMNSLRAEDTGIYYCTTPTLYGAMDYWGQGTSVTVSA
VL: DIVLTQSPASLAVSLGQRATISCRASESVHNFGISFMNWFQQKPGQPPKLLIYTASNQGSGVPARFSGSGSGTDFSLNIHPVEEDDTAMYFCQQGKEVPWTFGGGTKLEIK
notes: Mouse IgG monoclonal from a hybridoma; V regions were amplified with primers specific for mouse IgG gamma1 VH and Vk; also called antibody 476
For B4, the binding result with Fc-IL6 is listed as “binds”. Moreover, in the experiment with human IL-6 [1], the Kd lay in the range of 0.047 to 0.106 nM, the koff lay in the range of 0.00012 to 0.00026 s⁻¹ and the kon lay within 2.5e+06 to 2.6e+06 M⁻¹ s⁻¹. Further, the binding result in the experiment with human IL-6Ralpha is “no binding (tested: 1 ug/ml)”. Besides, the half-maximal effective concentration (EC50 (read off the curve)) with Fc-IL6Ralpha-IL6 [2] is about 6 ng/mL. In addition, the “EC50 (read off the curve)” value in the experiment with human IL-6 [3] was about 5 ng/mL. For the same molecule, in the experiment with Fc-IL6Ralpha-IL6 [4], the “IC50 (read off the curve)” value is about 200 ng/mL.

Values taken from patent US20070178098A1 (Merck KGaA, published 2007).
